In paper PMC12210189, “Crystal structure of the sucrose phosphorylase from Alteromonas mediterranea shows a loop transition in the active site” (Acta Crystallographica Section F: Structural Biology …, 2025):

Target: the molecule itself
Test: crystal structure; sitting drop, 295 K; protein 6.9 mg/ml in 25 mM HEPES, 50 mM NaCl, 0.5 mM DTT pH 7.0; reservoir 60%(v/v) Tacsimate pH 7.0; apo enzyme; 2.15 Å; two molecules (one dimer) in the asymmetric unit

B1: sucrose phosphorylase from Alteromonas mediterranea (enzyme)
chain: MGSIRNGVQLITYADRLGDGNIESLTNLLDGPLKGLFKGVHILPFYYPYDGEDAGFDPIDHTTVDERLGDWNNIKKLGESVDIMADLIVNHMSGQSEAFTDVLKKGRESEYWPLFLTKEDVFSGNDQAEIDEQIAKVFRPRPTPFFSDYEVGIETDSTETVPFWTTFTSNQIDIDVESELGKEYLSSILQSFTESNVDLIRLDAAGYAIKRAGSNCFMLEETFEFIEALSKRARTMGMQCLVEIHSHYQTQIDIAARCDSVYDFALPPLVLHTLFTKDASALAHWLSISPRNCFTVLDTHDGIGIVDVGASGDKPGLISADAINALVEQIHVNSNGESKKATGAAANNVDLYQVNCTYYDALGKDDFAYLVARAIQFFSPGIPQVYYGGLLAAHNDMELLANTNVGRDINRPYLTTAMVEDAIQKPVVKGLMQLITLRNENKAFGGAFDVTYTDNTLVLSWSNDGDAASLTVDFAAMDATINTVSNGEESTLSIGALLA
notes: sucrose phosphorylase (AmSP-WT), Alteromonas mediterranea, UniProt S5AE64_9ALTE; synthetic gene in pET-28b; also called AmSP; AmSP-WT; source: E. coli BL21(DE3), purified (Ni-NTA IMAC, size-exclusion chromatography)
  stoichiometry N: 2
